Measurements published in patent publication CN102050878A (NAT ENGINEERING RES CT OF ANTIBODY MEDICINE SHANGHAI CO LTD, dated 2011).

Target: T1, 人CD20 (Raji细胞表面) (human, UniProt P11836 1-297)
T1 construct: whole, on cells; The target is native on the B lymphoma lines Raji (and Daudi); No recombinant CD20 was used; also called 高表达CD20的Raji细胞
T1 sequence (looked up): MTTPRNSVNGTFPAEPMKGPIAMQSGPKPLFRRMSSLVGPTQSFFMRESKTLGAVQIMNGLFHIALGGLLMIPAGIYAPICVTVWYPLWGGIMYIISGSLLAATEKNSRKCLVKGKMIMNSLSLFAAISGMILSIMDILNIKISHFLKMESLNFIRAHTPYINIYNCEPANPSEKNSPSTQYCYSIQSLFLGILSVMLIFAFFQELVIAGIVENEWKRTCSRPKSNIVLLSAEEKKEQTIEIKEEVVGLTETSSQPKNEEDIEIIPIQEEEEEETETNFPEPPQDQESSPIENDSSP
Test: in vitro antigen binding assay, flow cytometry on Raji cells

- binding result: binds
B1: 抗人CD20人源化抗体hu3D9 (hu3D9Hb/hu3D9Lb) (antibody, human IgG1, kappa, V domains shown)
VH: EVQLVESGGGLVQPGGSLRLSCAASGYTFTNYWMQWVRQAPGQGLEWISAIYPGDGDTRYTQKFKGRATLSADKSKNTAYLQMNSLRAEDTAVYYCAREGAYGYDDGMDYWGQGTLVTVSS
VL: DIVLTQSPSSLSASVGDRVTITCRASQSIRNNLHWYQQKPGKAPKLLIKYASQSISGVPSRFSGSGSGTDFTLTISSLQPEDFATYYCQQSNSWPLTFGQGTKVEIKR
notes: Humanised antibody with 12 mouse framework residues kept
